Experimental findings from patent US20210332135A1 (ANTIBODY BIOPHARM, published 2021) are described below.

The target of assay [1] is T1, PD-L1 and CD47 double positive CHO cell pool (UniProt Q9NZQ7 19-290; Q08722 19-323, limits assumed).
T1 construct: whole, on cells; Two separate membrane proteins on one cell, not a complex; also called CD47 and PD-L1 double positive cells; double targets positive CHO cell
Put plainly: flow cytometry, double positive against single positive CHO cell pools. A general note: In flow cytometry, cells or beads pass a laser one at a time.

Assay [2] deals with T2, recombinant PD-L1 extracellur domain protein (UniProt Q9NZQ7 19-238, limits assumed).
T2 construct: extracellular domain; ELISA antigen
In words: ELISA. (ELISA stands for enzyme-linked immunosorbent assay.)

In assay [3] the target is T3, recombinant CD47 extracellur domain protein (UniProt Q08722 19-139, limits assumed).
T3 construct: extracellular domain; ELISA antigen
In words: ELISA.

The target of assay [4] is T4, HER2 and CD47 double positive CHO cell pool (UniProt P04626 23-1255; Q08722 19-323, limits assumed).
T4 construct: whole, on cells; Two separate membrane proteins on one cell, not a complex; also called CD47+HER2+ double positive cells; double targets positive CHO cell
In words: flow cytometry, double positive against single positive CHO cell pools.

For assay [5], the target named is T5, recombinant HER2 extracellur domain protein (UniProt P04626 23-652).
T5 construct: extracellular domain; ELISA antigen
In words: ELISA.

T3 sequence (Q08722 19-139 limits assumed): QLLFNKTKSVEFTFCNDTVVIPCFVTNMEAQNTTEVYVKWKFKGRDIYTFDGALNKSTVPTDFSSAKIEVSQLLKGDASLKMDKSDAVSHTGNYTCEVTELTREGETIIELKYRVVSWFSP
T2 sequence (Q9NZQ7 19-238 limits assumed): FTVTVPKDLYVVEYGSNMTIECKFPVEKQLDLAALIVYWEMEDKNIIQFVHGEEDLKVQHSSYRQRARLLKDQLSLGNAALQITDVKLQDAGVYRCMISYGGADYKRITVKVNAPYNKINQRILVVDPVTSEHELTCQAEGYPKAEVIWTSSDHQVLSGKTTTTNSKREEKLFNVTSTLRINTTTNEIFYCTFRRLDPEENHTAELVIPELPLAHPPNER
T1 sequence (Q9NZQ7 19-290 limits assumed, chain 1 of 2): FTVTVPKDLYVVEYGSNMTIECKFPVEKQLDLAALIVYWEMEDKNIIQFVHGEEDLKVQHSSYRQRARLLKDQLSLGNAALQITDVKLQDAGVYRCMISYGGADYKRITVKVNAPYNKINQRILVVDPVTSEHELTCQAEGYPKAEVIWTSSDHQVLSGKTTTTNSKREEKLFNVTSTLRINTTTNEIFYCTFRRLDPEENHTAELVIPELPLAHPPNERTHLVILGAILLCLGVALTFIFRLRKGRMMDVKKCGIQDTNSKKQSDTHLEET
T1 sequence (Q08722 19-323 limits assumed, chain 2 of 2): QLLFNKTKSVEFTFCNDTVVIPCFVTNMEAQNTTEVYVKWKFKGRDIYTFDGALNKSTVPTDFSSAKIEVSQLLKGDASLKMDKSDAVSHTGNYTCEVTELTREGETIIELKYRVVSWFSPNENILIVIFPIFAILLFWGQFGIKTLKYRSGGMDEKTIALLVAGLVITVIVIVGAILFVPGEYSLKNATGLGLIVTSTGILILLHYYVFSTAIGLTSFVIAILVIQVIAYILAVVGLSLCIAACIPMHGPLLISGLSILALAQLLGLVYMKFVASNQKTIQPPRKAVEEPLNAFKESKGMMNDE

B1: AbD036, bi-specific GCT Ab against PD-L1 and CD47 (bispecific antibody, human IgG1, kappa, L234A L235A)
heavy: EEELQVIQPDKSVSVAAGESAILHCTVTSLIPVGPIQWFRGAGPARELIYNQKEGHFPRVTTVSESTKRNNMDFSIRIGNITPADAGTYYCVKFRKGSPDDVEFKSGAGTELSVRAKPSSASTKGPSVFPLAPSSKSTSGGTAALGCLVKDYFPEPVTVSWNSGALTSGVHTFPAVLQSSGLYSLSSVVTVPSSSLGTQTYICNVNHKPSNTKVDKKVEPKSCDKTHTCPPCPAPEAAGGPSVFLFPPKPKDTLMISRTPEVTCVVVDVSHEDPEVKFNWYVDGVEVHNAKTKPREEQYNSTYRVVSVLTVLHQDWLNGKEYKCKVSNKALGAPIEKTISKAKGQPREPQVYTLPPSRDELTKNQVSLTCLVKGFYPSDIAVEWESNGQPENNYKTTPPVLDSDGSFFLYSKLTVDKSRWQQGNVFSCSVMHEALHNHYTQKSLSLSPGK
light: DSPDRPWNPPTFSPALLVVTEGDNATFTCSFSNTSESFVLNWYRMSPSNQTDKLAAFPEDRSQPGQDCRFRVTQLPNGRDFHMSVVRARRNDSGTYLCGAISRAPKAQIKESLRAELRVTERRAEVSSRTVAAPSVFIFPPSDEQLKSGTASVVCLLNNFYPREAKVQWKVDNALQSGNSQESVTEQDSKDSTYSLSSTLTLSKADYEKHKVYACEVTHQGLSSPVTKSFNRGEC
notes: SIRPa domain on IgG1 heavy chain, PD-1 IgV domain on kappa chain; also called ABP336
With B1, the “fold stronger staining than on the single target positive cells” value (“fold stronger staining than” below) in assay [1] is around 10 fold. Further, the binding acitivity in assay [2] and in assay [3] was above 100 nM in each case.

B2: AbD037, bi-specific GCT Ab against PD-L1 and CD47 (bispecific antibody, human IgG1, kappa, L234A L235A)
heavy: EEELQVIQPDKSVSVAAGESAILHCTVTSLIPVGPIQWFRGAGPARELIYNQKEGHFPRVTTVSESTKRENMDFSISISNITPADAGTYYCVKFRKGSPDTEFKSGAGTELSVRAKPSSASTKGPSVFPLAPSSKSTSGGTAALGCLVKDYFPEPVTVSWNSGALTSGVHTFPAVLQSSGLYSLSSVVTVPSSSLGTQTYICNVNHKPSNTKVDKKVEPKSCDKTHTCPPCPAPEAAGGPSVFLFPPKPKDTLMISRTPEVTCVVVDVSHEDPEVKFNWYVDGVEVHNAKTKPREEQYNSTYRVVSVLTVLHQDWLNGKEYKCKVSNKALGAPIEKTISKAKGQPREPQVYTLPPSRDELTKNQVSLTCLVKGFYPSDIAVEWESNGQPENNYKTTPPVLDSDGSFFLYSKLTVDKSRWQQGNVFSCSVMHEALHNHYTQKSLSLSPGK
light: DSPDRPWNPPTFSPALLVVTEGDNATFTCSFSNTSESFVLNWYRMSPSNQTDKLAAFPEDRSQPGQDCRFRVTQLPNGRDFHMSVVRARRNDSGTYLCGAISLAPKAQIKESLRAELRVTERRAEVSSRTVAAPSVFIFPPSDEQLKSGTASVVCLLNNFYPREAKVQWKVDNALQSGNSQESVTEQDSKDSTYSLSSTLTLSKADYEKHKVYACEVTHQGLSSPVTKSFNRGEC
notes: SIRPa domain on IgG1 heavy chain, PD-1 IgV domain on kappa chain; Parents named as P048 and S007; also called ABP336
Turning to B2, the “fold stronger staining than” value in assay [1] was around 10 fold. In addition, the binding acitivity in assay [2] and in assay [3] was above 100 nM in each case.

B3: AbD068-1, bi-specific GCT Ab against HER2 and CD47 (bispecific antibody, human IgG1, kappa, V domains shown)
VH: QVQLVQSGGGLVQAGGSLRLSCAASGRTFSSYAMAWFRQAPGKEREFVAAISWSGANIYVADSVKGRFTISRDNAKDTVYLQMNSLKPEDTAVYYCAVKLGFAPVEERQYDYWGQGTQVTVSS
VL: not shown
notes: Anti-HER2 single domain on IgG1 heavy chain, SIRPa domain on kappa chain; Fc of IgG1 wild type; Parents named as H16 (H016) and S007; also called ABP366 (AbD066 and AbD068-1)
Turning to B3, in assay [4], the “fold stronger staining than” value is around 100 fold. Moreover, the binding acitivity in assay [5] was around 100 nM; in assay [3], above 100 nM.

B4: AbD066, bi-specific GCT Ab against HER2 and CD47 (bispecific antibody, V domains shown)
VH: EVQLVESGGGLVQPGGSLRLSCAASGFNIKDTYIHWVRQAPGKEREWVARIYPTNGYTRYADSVKGRFTISRDNAKDTVYLQMNSLRAEDTAVYYCSRWGGDGFYAMDYWGQGTLVTVSS
VL: ELQVIQPDKSVSVAAGESAILHCTVTSLIPVGPIQWFRGAGPARELIYNQKEGHFPRVTTVSESTKRNNMDFSIRIGNITPADAGTYYCVKFRKGSPDDVEFKSGAGTELSVRA
notes: Anti-HER2 single domain on IgG1 heavy chain, SIRPa domain on kappa chain; Fc of IgG1 wild type; Parents named as H069 and S012; also called ABP366 (AbD066 and AbD068-1)
For the molecule B4, the binding acitivity in assay [3] is above 100 nM.
